According to paper PMC6747193:

Target: C1QBP Recombinant Human Protein (gC1q-R) (human) (UniProt Q07021)
Assay: ELISA; solid-phase microplate competition: gC1q-R coated on wells; polyclonal antibodies against gC1q-R amino acids 76-104 or 221-249 added at 4 µg/mL 1 h before idInlB at 0.4 µg/mL; idInlB without antibodies as positive control; bound idInlB detected with anti-His polyclonal antibody

Chain of UniProt Q07021 (Q07021 74-282): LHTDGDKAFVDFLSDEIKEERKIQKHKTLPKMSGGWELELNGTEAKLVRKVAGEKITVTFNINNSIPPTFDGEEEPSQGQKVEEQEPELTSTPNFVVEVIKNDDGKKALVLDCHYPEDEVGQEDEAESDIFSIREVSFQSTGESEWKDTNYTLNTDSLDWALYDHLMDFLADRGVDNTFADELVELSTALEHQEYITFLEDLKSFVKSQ

With “InlB internalin domain isoform idInlB9 (lineage I, from L. monocytogenes strain VIMHA015) (from UniProt P0DQD2 36-321) (domain or fragment)” the fold decrease of binding with the antibody against gC1q-R amino acids 76-104, against idInlB9 without antibody was 1.6 fold and the fold decrease of binding with the antibody against gC1q-R amino acids 221-249, against idInlB9 without antibody was 1.25 fold.
